According to patent publication US20080026982A1:

How the values were obtained:
Experiment in all cases: cell-based or functional assay
[1] = molecular target: APOBEC3G mutant D128K, C-terminal myc-tagged (human)
[2] = molecular target: APOBEC3G mutant P129A, C-terminal myc-tagged (human) (UniProt Q9HC16)
[3] = molecular target: APOBEC3G mutant P129D, C-terminal myc-tagged, expressed from pAPO3G-P129D (human) (UniProt Q9HC16)
[4] = molecular target: APOBEC3G mutant P129F, C-terminal myc-tagged (human) (UniProt Q9HC16)

Substance	Inhibition HIV-1 (%) (viral inhibition, HDV-EGFP single-cycle infectivity in the presence of Vif) [1]	Inhibition HIV-1 (%) (viral inhibition, HDV-EGFP single-cycle infectivity in the presence of Vif) [2]	GFP-positive cells (relative to wild type APOBEC3G with pcHelp set to 100%) [3] [%]	Inhibition HIV-1 (%) (viral inhibition, HDV-EGFP single-cycle infectivity in the presence of Vif) [3]	Inhibition HIV-1 (%) (viral inhibition, HDV-EGFP single-cycle infectivity in the presence of Vif) [4]	Inhibition HIV-2 (%) (viral inhibition, HDV-EGFP single-cycle infectivity in the presence of Vif) [1]	Inhibition HIV-2 (%) (viral inhibition, HDV-EGFP single-cycle infectivity in the presence of Vif) [2]	Inhibition HIV-2 (%) (viral inhibition, HDV-EGFP single-cycle infectivity in the presence of Vif) [3]	Inhibition HIV-2 (%) (viral inhibition, HDV-EGFP single-cycle infectivity in the presence of Vif) [4]
HIV-1 Vif (virion infectivity factor), expressed from pC-Help	83	68	< 10	94	79				
HIV-2 Vif (HIV-2Rod)			< 10			42	77	95	81
